According to article PMC8609903, “Novel Lung Targeting Cell Penetrating Peptides as Vectors for Delivery of Therapeutics” (Research Square, 2021):

Legend:
[1] = system: human bronchial epithelial cells
wild-type CD1 mice = test: Biodistribution time course of Cy5.5 labeled R11A, ex-vivo IVIS imaging; details: 5mg/Kg Cy5.5 labeled R11A intravenous, 15-360 minutes, n=3
Procedure: Mice were euthanized at the end of the circulation period, perfused and fixed as before, and multiple organs harvested and ex-vivo IVIS imaging performed immediately.
Wild-type, 6-week old, female CD1 mice were purchased from Charles Rivers. After at least 48 hours of acclimatization after arriving in the animal colony, mice were weighed and anesthetized with an intraperitoneal injection of a 1:1 cocktail of Ketamine:Xylazine at 1–2μL/gm body weight. […] At the end of circulation time, mice were euthanized using inhalational CO2 as per IACUC-approved protocol, chest cavity opened, right atrium nicked and 3–5ml of 4% formalin injected through the left ventricular apex to perfusion fix the animals. Various organs were harvested, rinsed once in PBS and placed on a petri dish to be imaged using IVIS (Perkin- Elmer – S5 instrument). All mice were imaged using identical instrument settings (stage position, exposure time, binning, F-stop etc.). […] All time-points were tested in at least triplicate (n=3).

[2] = system: SARS-CoV-2 (strain USA_WA1/2020); format: cell-based; details: concentrations of 2, 0.2, and 0.02 μM, human bronchial epithelial cells
[3] = system: Rat cardiomyoblast H9C2 cells; details: 10μM peptide, 30 minutes, 37°C, N-terminal Cy5.5, C-terminal amide, FACs, biological triplicates, p<0.001

Molecule	uptake at 4°C [1]	fluorescence in kidneys (wild-type CD1 mice)	fluorescence in liver (wild-type CD1 mice)	reduction of SARS-CoV-2 titers compared to virus controls [2]	Cy5.5 intensities, fold higher [3] [fold]
APWHLSSQYSAT ({Cy5.5}-APWHLSSQYSAT-NH2) [R11A]	very little uptake	little fluorescence	decreased over time		
CCC(CC)COC(=O)[C@H](C)N[P@](=O)(OC[C@H]1O[C@@](C#N)(c2ccc3c(N)ncnn23)[C@H](O)[C@@H]1O)Oc1ccccc1 [Remdesivir]				statistically significant	
APWHLSAQYSRT ({Cy5.5}-APWHLSAQYSRT-NH2) [S7A]	very little uptake				~3
